Key:
Test in all cases: alanine scan, flow cytometry, HEK293-T;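 also: antibody binding to each alanine-substituted CD33 mutant expressed transiently in HEK293-T, read as fluorescence minus background, mean of duplicates, relative to wild-type CD33 set as 100%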
human CD33 A168S = human CD33 A168S (human, UniProt P20138 18-364)
human CD33 P189A = human CD33 P189A (human, UniProt P20138 18-364)
human CD33 G188A = human CD33 G188A (human, UniProt P20138 18-364)
human CD33 I176A = human CD33 I176A (human, UniProt P20138 18-364)
human CD33 T192A = human CD33 T192A (human, UniProt P20138 18-364)
human CD33 Q171A = human CD33 Q171A (human, UniProt P20138 18-364)
human CD33 S195A = human CD33 S195A (human, UniProt P20138 18-364)
human CD33 T239A = human CD33 T239A (human, UniProt P20138 18-364)
human CD33 T185A = human CD33 T185A (human, UniProt P20138 18-364)
human CD33 T226A = human CD33 T226A (human, UniProt P20138 18-364)
human CD33 T232A = human CD33 T232A (human, UniProt P20138 18-364)
human CD33 L187A = human CD33 L187A (human, UniProt P20138 18-364)
human CD33 V234A = human CD33 V234A (human, UniProt P20138 18-364)
human CD33 S186A = human CD33 S186A (human, UniProt P20138 18-364)
human CD33 E170A = human CD33 E170A (human, UniProt P20138 18-364)
human CD33 T200A = human CD33 T200A (human, UniProt P20138 18-364)
human CD33 L229A = human CD33 L229A (human, UniProt P20138 18-364)
human CD33 G218A = human CD33 G218A (human, UniProt P20138 18-364)
human CD33 A306S = human CD33 A306S (human, UniProt P20138 18-364)
human CD33 L273A = human CD33 L273A (human, UniProt P20138 18-364)
human CD33 K250A = human CD33 K250A (human, UniProt P20138 18-364)
human CD33 D246A = human CD33 D246A (human, UniProt P20138 18-364)
human CD33 S248A = human CD33 S248A (human, UniProt P20138 18-364)
human CD33 G295A = human CD33 G295A (human, UniProt P20138 18-364)
human CD33 C276A = human CD33 C276A (human, UniProt P20138 18-364)
human CD33 L277A = human CD33 L277A (human, UniProt P20138 18-364)
human CD33 V257A = human CD33 V257A (human, UniProt P20138 18-364)
human CD33 F243A = human CD33 F243A (human, UniProt P20138 18-364)
human CD33 V267A = human CD33 V267A (human, UniProt P20138 18-364)
human CD33 F280A = human CD33 F280A (human, UniProt P20138 18-364)
human CD33 C274A = human CD33 C274A (human, UniProt P20138 18-364)
human CD33 A265S = human CD33 A265S (human, UniProt P20138 18-364)
human CD33 L270A = human CD33 L270A (human, UniProt P20138 18-364)
human CD33 H310A = human CD33 H310A (human, UniProt P20138 18-364)
human CD33 R291A = human CD33 R291A (human, UniProt P20138 18-364)
human CD33 T284A = human CD33 T284A (human, UniProt P20138 18-364)

human CD33 L187A, sequence (P20138 18-364 L187A limits assumed): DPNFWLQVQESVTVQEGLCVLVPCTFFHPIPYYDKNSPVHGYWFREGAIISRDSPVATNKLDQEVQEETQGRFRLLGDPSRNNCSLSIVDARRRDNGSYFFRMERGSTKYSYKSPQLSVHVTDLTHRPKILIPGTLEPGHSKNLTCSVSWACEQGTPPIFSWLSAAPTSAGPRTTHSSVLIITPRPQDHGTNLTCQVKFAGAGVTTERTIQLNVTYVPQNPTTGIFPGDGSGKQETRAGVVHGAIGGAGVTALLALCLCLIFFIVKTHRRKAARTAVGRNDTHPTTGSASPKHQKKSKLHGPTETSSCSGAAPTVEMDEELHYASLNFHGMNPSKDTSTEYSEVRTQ
human CD33 G188A, sequence (P20138 18-364 G188A limits assumed): as the sequence (P20138 18-364 L187A limits assumed) above, with A170L, G171A counted along it
human CD33 Q171A, sequence (P20138 18-364 Q171A limits assumed): as the sequence (P20138 18-364 L187A limits assumed) above, with Q154A, A170L counted along it
human CD33 P189A, sequence (P20138 18-364 P189A limits assumed): as the sequence (P20138 18-364 L187A limits assumed) above, with A170L, P172A counted along it
human CD33 A168S, sequence (P20138 18-364 A168S limits assumed): as the sequence (P20138 18-364 L187A limits assumed) above, with A151S, A170L counted along it
human CD33 I176A, sequence (P20138 18-364 I176A limits assumed): as the sequence (P20138 18-364 L187A limits assumed) above, with I159A, A170L counted along it
human CD33 L229A, sequence (P20138 18-364 L229A limits assumed): as the sequence (P20138 18-364 L187A limits assumed) above, with A170L, L212A counted along it
human CD33 T185A, sequence (P20138 18-364 T185A limits assumed): as the sequence (P20138 18-364 L187A limits assumed) above, with T168A, A170L counted along it
human CD33 T200A, sequence (P20138 18-364 T200A limits assumed): as the sequence (P20138 18-364 L187A limits assumed) above, with A170L, T183A counted along it
human CD33 T239A, sequence (P20138 18-364 T239A limits assumed): as the sequence (P20138 18-364 L187A limits assumed) above, with A170L, T222A counted along it
human CD33 T232A, sequence (P20138 18-364 T232A limits assumed): as the sequence (P20138 18-364 L187A limits assumed) above, with A170L, T215A counted along it
human CD33 T192A, sequence (P20138 18-364 T192A limits assumed): as the sequence (P20138 18-364 L187A limits assumed) above, with A170L, T175A counted along it
human CD33 E170A, sequence (P20138 18-364 E170A limits assumed): as the sequence (P20138 18-364 L187A limits assumed) above, with E153A, A170L counted along it
human CD33 V234A, sequence (P20138 18-364 V234A limits assumed): as the sequence (P20138 18-364 L187A limits assumed) above, with A170L, V217A counted along it

B1: Refmab #2 (antibody, V domains shown)
VH: QVQLVQSGAEVKKPGSSVKVSCKASGGTFSDYAISWVRQAPGQGLEWMGRIIPILGVADYAQKFQGRVTITADKSTRTAYMELSSLRSEDTAVYYCARNWADAFDIWGQGTMVTVSS
VL: DIQLTQSPSSLSASVGDRVTITCRASQGISSVLAWYQQKPGKAPKLLIYDASSLESGVPSRFSGSGSGTDFTLTISSLQPEDFATYYCQQFDSSITFGQGTKLEIK
notes: In the alanine scan antibodies were used as IgG or Fab
Mean % WT Binding (human CD33 A168S): 110% | Mean % WT Binding (human CD33 P189A): 116% | Mean % WT Binding (human CD33 G188A): 130% | Mean % WT Binding (human CD33 I176A): 124% | Mean % WT Binding (human CD33 T192A): 119% | Mean % WT Binding (human CD33 Q171A): 90% | Mean % WT Binding (human CD33 S195A): 119% | Mean % WT Binding (human CD33 T239A): 111% | Mean % WT Binding (human CD33 T185A): 118% | Mean % WT Binding (human CD33 T226A): 112% | Mean % WT Binding (human CD33 T232A): 84.8% | Mean % WT Binding (human CD33 L187A): 144% | Mean % WT Binding (human CD33 V234A): 117% | Mean % WT Binding (human CD33 S186A): 120% | Mean % WT Binding (human CD33 E170A): 123% | Mean % WT Binding (human CD33 T200A): 111% | Mean % WT Binding (human CD33 L229A): 113% | Mean % WT Binding (human CD33 G218A): 124%

B2: Refmab #2 (antibody, V domains shown)
VH: B1 VH
VL: B1 VL
notes: The alanine scan used IgG or Fab
Mean % WT Binding (human CD33 A306S): 85.1 % WT binding | Mean % WT Binding (human CD33 L273A): 117 % WT binding | Mean % WT Binding (human CD33 K250A): 108 % WT binding | Mean % WT Binding (human CD33 D246A): 114 % WT binding | Mean % WT Binding (human CD33 S248A): 93.6 % WT binding | Mean % WT Binding (human CD33 G295A): 110 % WT binding | Mean % WT Binding (human CD33 C276A): 103 % WT binding | Mean % WT Binding (human CD33 L277A): 117 % WT binding | Mean % WT Binding (human CD33 V257A): 108 % WT binding | Mean % WT Binding (human CD33 F243A): 102 % WT binding | Mean % WT Binding (human CD33 V267A): 114 % WT binding | Mean % WT Binding (human CD33 F280A): 120 % WT binding | Mean % WT Binding (human CD33 C274A): 117 % WT binding | Mean % WT Binding (human CD33 A265S): 104 % WT binding | Mean % WT Binding (human CD33 L270A): 119 % WT binding | Mean % WT Binding (human CD33 H310A): 112 % WT binding | Mean % WT Binding (human CD33 R291A): 122 % WT binding | Mean % WT Binding (human CD33 T284A): 119 % WT binding

B3: Refmab #3 (antibody, V domains shown)
VH: QVQLVQSGAEVKKPGSSVKVSCKASGYTFTDYNMHWVRQAPGQGLEWIGYIYPYNGGTGYNQKFKSKATITADESTNTAYMELSSLRSEDTAVYYCARGRPAMDYWGQGTLVTVSS
VL: DIQMTQSPSSLSASVGDRVTITCRASESVDNYGISFMNWFQQKPGKAPKLLIYAASNQGSGVPSRFSGSGSGTDFTLTISSLQPDDFATYYCQQSKEVPWTFGQGTKVEIK
notes: as for B1
Mean % WT Binding (human CD33 A168S): 99.2% | Mean % WT Binding (human CD33 P189A): 95.5% | Mean % WT Binding (human CD33 G188A): 85.1% | Mean % WT Binding (human CD33 I176A): 100% | Mean % WT Binding (human CD33 T192A): 102% | Mean % WT Binding (human CD33 Q171A): 138% | Mean % WT Binding (human CD33 S195A): 95.2% | Mean % WT Binding (human CD33 T239A): 105% | Mean % WT Binding (human CD33 T185A): 105% | Mean % WT Binding (human CD33 T226A): 100% | Mean % WT Binding (human CD33 T232A): 127% | Mean % WT Binding (human CD33 L187A): 95.5% | Mean % WT Binding (human CD33 V234A): 88.7% | Mean % WT Binding (human CD33 S186A): 106% | Mean % WT Binding (human CD33 E170A): 148% | Mean % WT Binding (human CD33 T200A): 82.4% | Mean % WT Binding (human CD33 L229A): 150% | Mean % WT Binding (human CD33 G218A): 143%

B4: Refmab #1 (antibody, V domains shown)
VH: EVQLVQSGAEVKKPGSSVKVSCKASGYTITDSNIHWVRQAPGQSLEWIGYIYPYNGGTDYNQKFKNRATLTVDNPTNTAYMELSSLRSEDTAFYYCVNGNPWLAYWGQGTLVTVSS
VL: DIQLTQSPSTLSASVGDRVTITCRASESLDNYGIRFLTWFQQKPGKAPKLLMYAASNQGSGVPSRFSGSGSGTEFTLTISSLQPDDFATYYCQQTKEVPWSFGQGTKVEVK
notes: In the alanine scan antibodies were used as IgG or Fab; also called hP67.6
Mean % WT Binding (human CD33 A168S): 88.4% | Mean % WT Binding (human CD33 P189A): 89.2% | Mean % WT Binding (human CD33 G188A): 102% | Mean % WT Binding (human CD33 I176A): 93.5% | Mean % WT Binding (human CD33 T192A): 101% | Mean % WT Binding (human CD33 Q171A): 90.8% | Mean % WT Binding (human CD33 S195A): 86.9% | Mean % WT Binding (human CD33 T239A): 79.7% | Mean % WT Binding (human CD33 T185A): 92.3% | Mean % WT Binding (human CD33 T226A): 92% | Mean % WT Binding (human CD33 T232A): 76.6% | Mean % WT Binding (human CD33 L187A): 92.3% | Mean % WT Binding (human CD33 V234A): 85.8% | Mean % WT Binding (human CD33 S186A): 92.5% | Mean % WT Binding (human CD33 E170A): 90.9% | Mean % WT Binding (human CD33 T200A): 85.2% | Mean % WT Binding (human CD33 L229A): 93.1% | Mean % WT Binding (human CD33 G218A): 79.2%

B5: Refmab #1 (antibody, V domains shown)
VH: B4 VH
VL: B4 VL
notes: The alanine scan used IgG or Fab; also called hP67.6
Mean % WT Binding (human CD33 A306S): 102 % WT binding | Mean % WT Binding (human CD33 L273A): 110 % WT binding | Mean % WT Binding (human CD33 K250A): 86.7 % WT binding | Mean % WT Binding (human CD33 D246A): 85.2 % WT binding | Mean % WT Binding (human CD33 S248A): 88.4 % WT binding | Mean % WT Binding (human CD33 G295A): 92.7 % WT binding | Mean % WT Binding (human CD33 C276A): 83.4 % WT binding | Mean % WT Binding (human CD33 L277A): 85.5 % WT binding | Mean % WT Binding (human CD33 V257A): 102 % WT binding | Mean % WT Binding (human CD33 F243A): 86.5 % WT binding | Mean % WT Binding (human CD33 V267A): 88.3 % WT binding | Mean % WT Binding (human CD33 F280A): 98.4 % WT binding | Mean % WT Binding (human CD33 C274A): 88.4 % WT binding | Mean % WT Binding (human CD33 A265S): 93.2 % WT binding | Mean % WT Binding (human CD33 L270A): 102 % WT binding | Mean % WT Binding (human CD33 H310A): 97.4 % WT binding | Mean % WT Binding (human CD33 R291A): 97.8 % WT binding | Mean % WT Binding (human CD33 T284A): 92.8 % WT binding

B6: Refmab #4 (antibody, V domains shown)
VH: QVQLVQSGAEVKKPGESVKVSCKASGYTFTNYGMNWVKQAPGQGLEWMGWINTYTGEPTYADKFQGRVTMTTDTSTSTAYMEIRNLGGDDTAVYYCARWSWSDGYYVYFDYWGQGTSVTVSS
VL: DIVMTQSPDSLTVSLGERTTINCKSSQSVLDSSTNKNSLAWYQQKPGQPPKLLLSWASTRESGIPDRFSGSGSGTDFTLTIDSPQPEDSATYYCQQSAHFPITFGQGTRLEIK
notes: as for B1
Mean % WT Binding (human CD33 A168S): 99.9% | Mean % WT Binding (human CD33 P189A): 98.2% | Mean % WT Binding (human CD33 G188A): 91.3% | Mean % WT Binding (human CD33 I176A): 124% | Mean % WT Binding (human CD33 T192A): 99.7% | Mean % WT Binding (human CD33 Q171A): 102% | Mean % WT Binding (human CD33 S195A): 112% | Mean % WT Binding (human CD33 T239A): 102% | Mean % WT Binding (human CD33 T185A): 98.9% | Mean % WT Binding (human CD33 T226A): 91.9% | Mean % WT Binding (human CD33 T232A): 57.4% | Mean % WT Binding (human CD33 L187A): 108% | Mean % WT Binding (human CD33 V234A): 107% | Mean % WT Binding (human CD33 S186A): 121% | Mean % WT Binding (human CD33 E170A): 95.5% | Mean % WT Binding (human CD33 T200A): 88.8% | Mean % WT Binding (human CD33 L229A): 89.1% | Mean % WT Binding (human CD33 G218A): 102%

Source: patent publication US20260242735A1 (UNIVERSIT T BASEL, published 2026)
